Experiments:
[1] = target: clade 1a RBDs (SARS-CoV-1-related sarbecoviruses), yeast-displayed; assay: flow cytometry on cells
[2] = target: clade 1b RBDs (SARS-CoV-2-related sarbecoviruses), yeast-displayed; assay: flow cytometry on cells

B1: C68.61 (antibody, V domains shown)
VH: EVQLVQSGAEVKKPGESLKISCKGSAYIFTRYWIGWVRQMPGKGLEWMGIIYPGDSDTRYSPSFQGQVTISADKSISTAYLQWSSLKASDTAMYYCARSGTTNYFDYWGQGTLVTVSS
VL: DIQLTQSPSTLSASVGDRVTITCRASQSISSWLAWYQQKPGKAPKLLIYDASSLDSGVPSRFSGSGSGTDFTLTISSLQPDDFATYYCQQFNSYWTFGQGTKVEIK
Which results are given for B1?
geomean EC50 across the clade [1]: 1.9 ng/mL; geomean EC50 across the clade [2]: 0.25 ng/mL

Source: article PMC11542851
